From article PMC7615972

How the values were obtained:
Assay in all cases: SPR; mouse CACHD1ECD as analyte; FZD CRDs or LRP6 fragments immobilised; equilibrium dissociation constants
[1] = molecular target: human FZD8 cysteine-rich domain (FZD8CRD) (human) (UniProt Q9H461)
[2] = molecular target: human LRP6 membrane distal fragment (LRP6_(P1E1P2E2)) (human) (UniProt O75581)
[3] = molecular target: human FZD7 cysteine-rich domain (FZD7CRD) (human) (UniProt O75084)

purified mouse CACHD1 extracellular domain (CACHD1ECD), sequence (Q6PDJ1 50-1109): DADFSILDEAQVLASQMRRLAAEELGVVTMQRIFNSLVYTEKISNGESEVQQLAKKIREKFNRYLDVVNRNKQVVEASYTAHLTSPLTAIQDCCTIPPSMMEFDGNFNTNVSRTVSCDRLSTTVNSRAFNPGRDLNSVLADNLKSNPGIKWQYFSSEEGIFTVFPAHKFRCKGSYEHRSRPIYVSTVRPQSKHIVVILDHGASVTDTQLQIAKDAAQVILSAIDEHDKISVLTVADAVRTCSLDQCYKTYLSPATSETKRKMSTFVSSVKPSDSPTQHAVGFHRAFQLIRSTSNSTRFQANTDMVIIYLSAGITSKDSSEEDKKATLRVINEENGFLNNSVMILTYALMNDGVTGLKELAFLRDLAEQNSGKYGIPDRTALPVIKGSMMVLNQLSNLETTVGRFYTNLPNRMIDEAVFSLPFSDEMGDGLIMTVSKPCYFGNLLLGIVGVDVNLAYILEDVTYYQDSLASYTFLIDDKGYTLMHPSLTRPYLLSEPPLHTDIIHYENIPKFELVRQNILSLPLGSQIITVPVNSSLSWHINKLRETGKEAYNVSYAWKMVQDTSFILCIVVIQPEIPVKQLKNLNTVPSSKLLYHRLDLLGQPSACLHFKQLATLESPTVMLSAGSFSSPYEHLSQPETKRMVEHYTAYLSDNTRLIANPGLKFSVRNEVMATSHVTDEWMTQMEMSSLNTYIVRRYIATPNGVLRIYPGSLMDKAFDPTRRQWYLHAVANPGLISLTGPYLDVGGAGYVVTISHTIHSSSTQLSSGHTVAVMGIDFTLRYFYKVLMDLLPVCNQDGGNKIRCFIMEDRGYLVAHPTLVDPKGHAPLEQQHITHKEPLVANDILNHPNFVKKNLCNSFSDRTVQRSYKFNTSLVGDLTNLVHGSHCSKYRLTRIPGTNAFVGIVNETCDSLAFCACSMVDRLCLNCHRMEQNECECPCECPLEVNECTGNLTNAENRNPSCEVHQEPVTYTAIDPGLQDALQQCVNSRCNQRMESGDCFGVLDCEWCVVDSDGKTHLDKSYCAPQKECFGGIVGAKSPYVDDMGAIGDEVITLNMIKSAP
human FZD8 cysteine-rich domain (FZD8CRD) (human), sequence (Q9H461 28-694): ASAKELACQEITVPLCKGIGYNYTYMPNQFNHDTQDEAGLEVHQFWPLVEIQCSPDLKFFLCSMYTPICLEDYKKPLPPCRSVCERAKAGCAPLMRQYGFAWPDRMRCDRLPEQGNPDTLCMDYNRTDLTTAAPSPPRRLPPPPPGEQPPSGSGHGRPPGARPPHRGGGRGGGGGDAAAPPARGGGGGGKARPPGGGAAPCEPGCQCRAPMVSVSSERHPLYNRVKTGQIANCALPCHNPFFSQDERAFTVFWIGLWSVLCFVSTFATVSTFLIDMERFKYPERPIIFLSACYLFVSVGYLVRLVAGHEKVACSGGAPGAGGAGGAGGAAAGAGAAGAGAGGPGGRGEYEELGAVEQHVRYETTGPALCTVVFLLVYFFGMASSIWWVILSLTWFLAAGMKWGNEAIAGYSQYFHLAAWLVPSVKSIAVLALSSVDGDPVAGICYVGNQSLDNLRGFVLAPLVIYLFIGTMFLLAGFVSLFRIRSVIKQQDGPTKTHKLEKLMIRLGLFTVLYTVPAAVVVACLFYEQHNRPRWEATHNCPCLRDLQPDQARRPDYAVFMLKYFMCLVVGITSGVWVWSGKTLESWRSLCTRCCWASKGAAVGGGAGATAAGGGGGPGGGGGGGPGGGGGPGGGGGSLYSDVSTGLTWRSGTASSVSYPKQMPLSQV
human LRP6 membrane distal fragment (LRP6_(P1E1P2E2)) (human), sequence (O75581 20-1613): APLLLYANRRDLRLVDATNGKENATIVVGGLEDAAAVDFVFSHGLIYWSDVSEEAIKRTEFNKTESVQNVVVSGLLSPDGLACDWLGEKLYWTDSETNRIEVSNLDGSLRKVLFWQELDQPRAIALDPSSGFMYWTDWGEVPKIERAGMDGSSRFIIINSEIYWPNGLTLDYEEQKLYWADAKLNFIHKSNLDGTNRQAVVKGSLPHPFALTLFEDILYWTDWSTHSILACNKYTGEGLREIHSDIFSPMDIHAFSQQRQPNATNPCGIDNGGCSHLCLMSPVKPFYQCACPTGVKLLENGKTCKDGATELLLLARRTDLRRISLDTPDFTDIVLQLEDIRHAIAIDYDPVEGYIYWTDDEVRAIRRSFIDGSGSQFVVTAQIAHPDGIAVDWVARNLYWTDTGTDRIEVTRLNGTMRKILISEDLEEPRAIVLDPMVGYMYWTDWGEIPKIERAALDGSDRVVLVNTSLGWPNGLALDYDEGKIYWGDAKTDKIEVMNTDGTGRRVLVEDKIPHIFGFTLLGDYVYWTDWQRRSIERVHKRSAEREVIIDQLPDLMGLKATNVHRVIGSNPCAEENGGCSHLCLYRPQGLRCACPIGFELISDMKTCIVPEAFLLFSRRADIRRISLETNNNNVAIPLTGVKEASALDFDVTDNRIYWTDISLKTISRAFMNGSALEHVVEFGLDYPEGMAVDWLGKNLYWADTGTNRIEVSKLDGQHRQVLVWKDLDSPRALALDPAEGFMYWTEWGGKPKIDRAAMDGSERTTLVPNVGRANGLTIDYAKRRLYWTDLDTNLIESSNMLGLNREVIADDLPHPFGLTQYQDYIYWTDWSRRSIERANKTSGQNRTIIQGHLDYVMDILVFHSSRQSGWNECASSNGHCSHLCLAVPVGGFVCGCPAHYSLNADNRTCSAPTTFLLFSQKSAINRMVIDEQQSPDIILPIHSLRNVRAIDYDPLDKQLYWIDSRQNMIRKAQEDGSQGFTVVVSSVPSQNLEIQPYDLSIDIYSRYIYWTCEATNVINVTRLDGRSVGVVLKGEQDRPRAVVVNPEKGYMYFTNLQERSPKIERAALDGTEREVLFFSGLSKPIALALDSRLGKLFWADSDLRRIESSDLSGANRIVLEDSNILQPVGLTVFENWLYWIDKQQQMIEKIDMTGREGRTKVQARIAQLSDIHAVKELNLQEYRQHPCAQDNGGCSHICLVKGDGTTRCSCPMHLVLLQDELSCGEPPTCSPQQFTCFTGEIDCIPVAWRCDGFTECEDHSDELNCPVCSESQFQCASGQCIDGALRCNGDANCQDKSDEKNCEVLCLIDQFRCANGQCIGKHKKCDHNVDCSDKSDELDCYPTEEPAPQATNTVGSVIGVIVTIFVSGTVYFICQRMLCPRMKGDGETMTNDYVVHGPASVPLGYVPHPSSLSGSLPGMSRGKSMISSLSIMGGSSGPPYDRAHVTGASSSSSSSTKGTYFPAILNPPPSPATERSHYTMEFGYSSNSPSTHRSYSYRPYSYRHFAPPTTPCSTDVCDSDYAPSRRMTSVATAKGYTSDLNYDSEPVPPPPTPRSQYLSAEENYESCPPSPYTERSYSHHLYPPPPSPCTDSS

purified mouse CACHD1 extracellular domain (CACHD1ECD) (from UniProt Q6PDJ1 50-1109) (domain or fragment)
Kd [1]: 0.95 µM | Kd [2]: 5.86 µM | Kd [3]: 14.2 µM
